Reference: the nanobody polyreactivity screen of Harvey et al. (2022)

assay: yeast display, Sf9 membrane polyspecificity reagent, FACS + sequencing; frameworks hold sequencing errors
Method in brief: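 Galactose induction of a Saccharomyces cerevisiae BJ5465 synthetic nanobody display library ran 36–48 hours. The cells were then stained for 1 hour at 4 °C with 10% biotinylated, detergent-solubilized Sf9 membrane reagent, pulled down on streptavidin microbeads and FACS-sorted into low and high (top ~1%) gates on expression and reagent-binding fluorescence. Labels for polyreactivity follow the gate of origin.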

Sequence	polyreactivity (PSR sort gate)
QVQLVESGGGLVQAGGSLRLSCAASGFTLARYAMGWYRQAPGKERELVAGITGGGSTYYADSVKGRFTISRDNAKNTVYLQMNSVKPEDTAVYYCNARTYWKSRLKQYNYWGQVTQVTVSS	high polyreactivity
QVQLVESGGGLVQAGGSLRLSCAASGFTLAYNTMGWYRQAPGKERELVASITSSGTSTYYADSVKGRFTISRDNAKNTVYLQMNSLKPPDTAVYYCAASIWLRYHWGYDYWGQGTQVTVSS	high polyreactivity
QVQLVESGGGLVQAGGSLRLSCAASGFTLDPYAMGWYRQAPGKERELVAAIRLSGSSTYYADSVKGRFTISRDNAKNTVYLQMNSLKPEDTAVYYCAADGISHWMYRYDYWGQGTQVTVSS	low polyreactivity
QVQLVESGGGLVQAGGSLRLSCAASGFTLDWYVMGWYRQAPGKERELVAAISSSGGRTYYADSVKGRFTISRDNAKNTVYLQRNSLKPEDTAVYYCAARNKYGGYPYGYDYWGQGTQVTVSS	high polyreactivity
QVQLVESGGGLVQAGGSLRLSCAASGFTLDWYVMGWYRQAPRKERELFAAISSSGGRTYYADSVKGRFTISRDNAKNSVYLQMNSLKPEDTAVYYCAAGTYYRVGRGRRVSFVYWGQGTQVTVSS	high polyreactivity
QVQLVESGGGLVQAGGSLRLSCAASGFTLEFYAMVWYRQAPGKKRELVARITTYGGSTRYADSVKGRFTISRDNAKNTVYLKMNSLKPEDTAVYNCAARGYGYRNVETYGYWGQGTQVTVSS	high polyreactivity
QVQLVESGGGLVQAGGSLRLSCAASGFTLGCYAMGWYRQAPGKERELVAAITRDGSSTYYADSVKGRFTISRDNAKNTVYLQMNRLKPEDTAVYYCAAERKKKYDYWGQGTQVTVSS	high polyreactivity
QVQLVESGGGLVQAGGSLRLSCAASGFTLGRYAKGWYRQAPGKERELVAAISSGGRTYYADSVKGRFTISRDNAKNTVYLQMNSLKPEDTAVYYCAADPRYISYDYWGQGTQVTVSS	low polyreactivity
QVQLVESGGGLVQAGGSLRLSCAASGFTLGRYAMGWYRQAPGKERELVAAITGRGGTTYYADSVKGRFRISRDNAKNTVYLQMNSLKPEDTAVYYCAADTKLSYQWFDYWGQGTQVTVSS	high polyreactivity
QVQLVESGGGLVQAGGSLRLSCAASGFTLGYNAMGWYRQAPGKERQLVAGITWSGGSTSYADSVKGRFTISRDNAKNTVYLQMNSLKPEDTAVYYCAKLRRYSGWLPWPYAYDYWGLGTQVTVSS	high polyreactivity
QVQLVESGGGLVQAGGSLRLSCAASGFTLGYNVMGWYRQAPGKERELVATICWNGARTYYADSVKGRFTISRDTAKNTVYLQMNSLKPEDTAVYYCAARRYYRGEYDYWGQGTQVTVSS	low polyreactivity
QVQLVESGGGLVQAGGSLRLSCAASGFTLGYYAMGWDRQAPGKERELVASISITAGSTYYAVSVMGRLTISRDNAKNTVYLQMNSLKPEDTAVYYCAAKRRTRQSYYTVYYWGQGTQVTVSS	high polyreactivity
QVQLVESGGGLVQAGGSLRLSCAASGFTLHSYAMGWYRQAPWKERELVAAITRSGGGTYYADSVKGRFTISRDNAKNTVYLQMNSLKPEDTAVYYCAARFGGQYQHDYWGQGTQVTVSS	high polyreactivity
QVQLVESGGGLVQAGGSLRLSCAASGFTLIYYAMGWYRQAPGKERELVAGISRGVSTSYADSVMGRFTISRDNAKNTVYLQMNSLKPEDTAVYYCAAEGSPVDQSSIYDYWGQGTQVTVSS	low polyreactivity
QVQLVESGGGLVQAGGSLRLSCAASGFTLKSYAMGWYRQAPGKERELVASISRRGGSTYYADSVKGRFTISRDNAKNTVYLQMNSLKPEDTAVYYCNADYVRYPGNAYDYWGQGTQVTVSS	high polyreactivity
QVQLVESGGGLVQAGGSLRLSCAASGFTLKWYAMGWYRQAPGKERELVAAINDRGGNTYYADSVKGRFTISRDNAKNTVYLQMNSLKPEDTAVYYCAVRGKTYRPYYYWGQGTQVTVSS	high polyreactivity
QVQLVESGGGLVQAGGSLRLSCAASGFTLLGNTMGWSRQAPGKERELVAAIRTNSGRTYYADSVKGRFTISRDNAKNTVYLQMNSLKPEDTAVYYCNAQSYRSDSAYHYNYDYWGQGTQVTVSS	high polyreactivity
QVQLVESGGGLVQAGGSLRLSCAASGFTLLGNTMGWYRQAPGKERELVAAIRTNSGRTYYADSVKGRFTISRDNAKNTVYLQMNSLKPEDTAVYYCAKRYFSYLGREMDYWGQGTQVTVSS	high polyreactivity
QVQLVESGGGLVQAGGSLRLSCAASGFTLLPYAMGWYRQAPGKERELVAAISRRGVSTYYADSVKGRFTISRDNAKNTVYLQMNSLKPEDTAVYYCATRYFTGYGLRPQFYYWGQGSQVTVSS	high polyreactivity
QVQLVESGGGLVQAGGSLRLSCAASGFTLRLNAMGWYRQAPGKARELVAAITRSGGNTYYADSVKGRFTISRDNAKNTVYLEMNSLKPEDSAVYYCAVRQLDRRSPKYNYWGQGTQVTVSS	high polyreactivity
QVQLVESGGGLVQAGGSLRLSCAASGFTLSYYAMGWYRPAPGKEREFVAAIRTSGTSTYYADSVKGRFTISRDNAKNTVYLQMNSLKPEDTAVYYCAVARGSGWYWRSDYWGQGTQVTVSS	high polyreactivity
QVQLVESGGGLVQAGGSLRLSCAASGFTLVYYVMGWYRQAPGKERELVARISRGGSTNYADSVKGRFTISRDNAKNTVYLQMNSLKPEDTAVYYCAARRTSWQGFNYWGQGTQVTVAS	high polyreactivity

Sequence	polyreactivity (PSR sort gate)
QVQLVESGGGLVQAGGSLRLSCAASGFTLYSNTMGWYRQAPGKERELVAAINYSGGSTYYADSVKGRFTISRDNAKNTVYLQMNSLKPQDTAVYYCATDLHWLVTKYGYWGQGTQVTVSS	low polyreactivity
QVQLVESGGGLVQAGGSLRLSCAASGFTRIYAMGWYRQAPGKERELVAAISQRGGRTYYADSVKGRFTISRDNAKNTVYLQMNSLKPEDTAVYYCNADRRSYNYPEYEYDYWGQGTQVTVSS	high polyreactivity
QVQLVESGGGLVQAGGSLRLSCAASGFTRVVSTMGWYRQAPGKERELVATISYTDGSTYYADAVKGRFTISRDNAKNTDYLQMTSLKPEDTADYYCNASYPSSSYSYHVDYWGQGTQVTVSS	low polyreactivity
QVQLVESGGGLVQAGGSLRLSCAASGFTSAPNAMGWYRQAPGKERELVAAITSSTGRTRYADSVKGRFTISRDNAKNTVYLQMNSLKPEDTAVYYCAVKLLFRGTYEYWGQGTQVTVSS	low polyreactivity
QVQLVESGGGLVQAGGSLRLSCAASGFTSGRNTMGWYRQAPGKERELVAAISSSGGRTYYADSVKGRFTISRDNAKKTVYLQKHRLKAEDPAVYYCNVAGAIKRTIGDYEYWGQGTQVTVSS	high polyreactivity
QVQLVESGGGLVQAGGSLRLSCAASGFTSNYYAMGWYRQAPGKERELVAAITTGGSTHYADSVKGRFTISRDNAKNTVYLQMNSLKPEDTAVYYCAAGTNRQQQRYFHPGGYYQYNYWGQGSQVTVSS	low polyreactivity
QVQLVESGGGLVQAGGSLRLSCAASGFTSQYYAMGWYRQAPGKERELVAAITLRDGSTYYADSVKGRFTISRDNAKNTVYLQMNSMKPEDTAVYYCNTDATSDPYGFGYWGQGTQVTVSS	low polyreactivity
QVQLVESGGGLVQAGGSLRLSCAASGFTSRKNAMGWYSQAPGKERELVAAITQSSGRTYYADSVKGRFTISRDNAKNTVYLQMNSLKPEDTAVYYCAARRGGEDDYWGQGTQVTVSS	low polyreactivity
QVQLVESGGGLVQAGGSLRLSCAASGFTSWYAMGWYRQAPGKERELVAAISSGGSTNYADSVKGRFTISRDNAKNTVYLQLNSLKPEDTAVYYCNAEGYETGVPYFGFYFWGQGTQVTVSS	low polyreactivity
QVQLVESGGGLVQAGGSLRLSCAASGFTSYLYTMGWYRQAPGKERELVATITLRGGSTYYADSVKGRFTISRDNAKNTVYLQMNSLKPEDTAVYYCAAPAYLTSHSRYDYWGQGTQVSVSS	high polyreactivity
QVQLVESGGGLVQAGGSLRLSCAASGFTVYSYPLGWYRQAPGKERELVAAITRSGGITYYADSVKGRFTISRDNAKNTVYLQMNSLKPEDTAVYYCNAYRGGLSSEHYYWGQGTQVTVSS	high polyreactivity
QVQLVESGGGLVQAGGSLRLSCAASGFTYFQYAMGWYRQAPGKERELVAAITSGVSTNYADSVKGRFTISRDNAKNTVYLQMNSLKPEDTAVYYCAADPRYLQSWRGEFAGEYWGQGTQVTVSS	low polyreactivity
QVQLVESGGGLVQAGGSLRLSCAASGFTYFYAMGWYRQAPGKERELVATITINGGRTYYADSVKGRFTISRDNAKNTVYLQMNSLKPEDTAVYYCAAKSWYSYGDWGYYSWGQGTQVTVSS	high polyreactivity
QVQLVESGGGLVQAGGSLRLSCAASGFTYRTNAMGWYRQAPGKERELVAAISTGARTYYADSVKGRFTISRDNAKNTVYLQMNSLKPEDTAVYYCNKVLRRFLSRYDYWGQGTQVTVSS	high polyreactivity
QVQLVESGGGLVQAGGSLRLSCAASGFTYRTYAMGWYRQAPGKERELVAAITVSGGTYYADSVKGRFTISRDNAKNTVYFQMNSLKPEDTAVYYCTAKRFRTGFDYWGQGTQVTVSS	low polyreactivity
QVQLVESGGGLVQAGGSLRLSCAASGFTYYHNVMGWYRQAPGKERELVAAISSGGDTTYYADSVKGRFTISRDNAKNTVSLQKNSLKPEDTAVYYCNADRQIGRYYHFDYWGQGTQVSVSS	high polyreactivity
QVQLVESGGGLVQAGGSLRLSCAASGFVYYVMGWYRQAPGKERELVAAISKGGGRTYYADSVKGRFTISRDNAKNTVYLQMNSLKPEDTAVYYCNADGGLPKYDYWGQGTQVTVSS	high polyreactivity
QVQLVESGGGLVQAGGSLRLSCAASGFYNTMGWYRQAPGKERELVAAISTGGITNYADSVKGRFTISRDNSKNTFYFQMKSLIPEDTAVYYCAADGYSTVSSTYDYWGQGTQVTVSS	low polyreactivity
QVQLVESGGGLVQAGGSLRLSCAASGGIFAANAMGWYRPAPGKERELVAAISRSGGRTYYADSVKGRFTISRDNAKNTVYLQMNSLKPEDTAVYYCAATYQASNAWYDYWGQGTQVTVSS	high polyreactivity
QVQLVESGGGLVQAGGSLRLSCAASGGIFAPYAMGWYRQAPGKERELVADITSEGGSTYYADSVKGRFTISRDIEKNTVYLQMNSLKPEDTAVYYCAAEQRYCWWGHPGDYWGKGTQVTVSS	low polyreactivity
QVQLVESGGGLVQAGGSLRLSCAASGGIFAVYAMGWYRQAPGKERELVAAITWRGGSTRYADSVKGRFTISRDNAKNTVHLQMNSLIPEDTAVYYCAVRSTGYPSRYYYWGQGTQVTVSS	high polyreactivity
